The test deals with T1, Recombinant human FcγRI (human, UniProt P12314 16-292, limits assumed).
T1 construct: not shown: His tag (captured on anti-tetra-His antibody)
As to the kind of experiment: Biacore SPR; FcγRI captured on anti-tetra-His, antibody 100 nM. (In general: In SPR one partner is held on a chip, and binding of the other changes the refractive index at the surface.)

T1 sequence (P12314 16-292 limits assumed): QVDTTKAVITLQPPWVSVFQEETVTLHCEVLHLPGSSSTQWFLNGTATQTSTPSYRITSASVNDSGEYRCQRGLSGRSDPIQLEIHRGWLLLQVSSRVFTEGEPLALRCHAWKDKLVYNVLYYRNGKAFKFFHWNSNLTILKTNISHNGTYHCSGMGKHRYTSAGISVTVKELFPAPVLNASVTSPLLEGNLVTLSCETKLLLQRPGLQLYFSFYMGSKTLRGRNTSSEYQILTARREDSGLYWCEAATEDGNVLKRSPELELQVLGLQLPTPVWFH

B1: Anti-αβTCR clone H66 S298N/Y300S antibody (antibody, human IgG1, kappa)
heavy: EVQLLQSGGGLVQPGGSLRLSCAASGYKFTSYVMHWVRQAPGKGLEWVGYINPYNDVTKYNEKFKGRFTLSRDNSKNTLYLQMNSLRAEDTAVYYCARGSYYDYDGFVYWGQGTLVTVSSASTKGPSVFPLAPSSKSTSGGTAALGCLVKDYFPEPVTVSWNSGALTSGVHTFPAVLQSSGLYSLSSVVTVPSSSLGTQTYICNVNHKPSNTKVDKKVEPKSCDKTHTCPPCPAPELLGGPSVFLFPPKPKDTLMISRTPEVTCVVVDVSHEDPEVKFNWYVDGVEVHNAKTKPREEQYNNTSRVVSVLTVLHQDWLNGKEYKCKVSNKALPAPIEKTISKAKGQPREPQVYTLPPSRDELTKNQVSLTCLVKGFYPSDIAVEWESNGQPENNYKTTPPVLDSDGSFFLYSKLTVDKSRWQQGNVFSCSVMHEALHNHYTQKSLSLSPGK
light: EIVLTQSPATLSLSPGERATLSCSATSSVSYMHWYQQKPGQAPRRLIYDTSKLASGVPARFSGSGSGTSYTLTISSLEPEDFAVYYCQQWSSNPLTFGGGTKVEIKRTVAAPSVFIFPPSDEQLKSGTASVVCLLNNFYPREAKVQWKVDNALQSGNSQESVTEQDSKDSTYSLSSTLTLSKADYEKHKVYACEVTHQGLSSPVTKSFNRGEC
notes: Full-length human IgG1; also called SY; S298N/Y300S H66
On to B1, for which the binding result was “binds”.

B2: Anti-αβTCR clone H66 N297Q/S298N/Y300S antibody (antibody, human IgG1, kappa)
heavy: EVQLLQSGGGLVQPGGSLRLSCAASGYKFTSYVMHWVRQAPGKGLEWVGYINPYNDVTKYNEKFKGRFTLSRDNSKNTLYLQMNSLRAEDTAVYYCARGSYYDYDGFVYWGQGTLVTVSSASTKGPSVFPLAPSSKSTSGGTAALGCLVKDYFPEPVTVSWNSGALTSGVHTFPAVLQSSGLYSLSSVVTVPSSSLGTQTYICNVNHKPSNTKVDKKVEPKSCDKTHTCPPCPAPELLGGPSVFLFPPKPKDTLMISRTPEVTCVVVDVSHEDPEVKFNWYVDGVEVHNAKTKPREEQYQNTSRVVSVLTVLHQDWLNGKEYKCKVSNKALPAPIEKTISKAKGQPREPQVYTLPPSRDELTKNQVSLTCLVKGFYPSDIAVEWESNGQPENNYKTTPPVLDSDGSFFLYSKLTVDKSRWQQGNVFSCSVMHEALHNHYTQKSLSLSPGK
light: EIVLTQSPATLSLSPGERATLSCSATSSVSYMHWYQQKPGQAPRRLIYDTSKLASGVPARFSGSGSGTSYTLTISSLEPEDFAVYYCQQWSSNPLTFGGGTKVEIKRTVAAPSVFIFPPSDEQLKSGTASVVCLLNNFYPREAKVQWKVDNALQSGNSQESVTEQDSKDSTYSLSSTLTLSKADYEKHKVYACEVTHQGLSSPVTKSFNRGEC
notes: Full-length human IgG1; also called NSY
As to B2, the binding result is given as “binds”.

Values taken from patent US20160136299A1 (Sanofi, published 2016).
